A short description of this series: soluble on expression in E. coli; label from the status in PepcDB or PDB records.
“MATLVVNKLGAGVDSGRQGSRGTAVVKVLECGVCEDVFSLQGDKVPRLLLCGHTVCHDCLTRLPLHGRAIRCPFDRQVTDLGDSGVWGLKKNFALLELLERLQNGPIGQYGAAEESIGISGESIIRCDEDEAHLASVYCTVCATHLCSECSQVTHSTKTLAKHRRVPLADKPHEKTMCSQHQVHAIEFVCLEEGCQTSPLMCCVCKEYGKHQGHKHSVLEPEANQIRASILDMAHCIRTFTEEISDYSRKLVGIVQHIEGGEQIVEDGIGMAHTEHVPGTAENARSCIRAYFYDLHETLCRQEEMALSVVDAHVREKLIWLRQQQEDMTILLSEVSAACLHCEKTLQQDDCRVVLAKQEITRLLETLQKQQQQFTEVADHIQLDASIPVTFTKDNRVHIGPKMEIRVVTLGLDGAGKTTILFKLKQDEFMQPIPTIGFNVETVEYKNLKFTIWDVGGKHKLRPLWKHYYLNTQAVVFVVDSSHRDRISEAHSELAKLLTEKELRDALLLIFANKQDVAGALSVEEITELLSLHKLCCGRSWYIQGCDARSGMGLYEGLDWLSRQLVAAGVLDVA”: the “soluble on expression in E. coli” value is “soluble”.
The entry for “SKVFNLDRGNTLSVSLFSGVTNSKELLNSMLDGSLKLEVSFLNASLIPGIFPLLAAAQKALISKSRDSLSTRTLHSELVYNYSGSKHITESLKRCGISENTTYILAARFNASPVEMEEVAKLINGKEIDLEELKTHANQANILKHYKITSQELGISSLGDAIVCRIAARDAL” is “soluble”; for “MTLIRWNPWQDLNTLQRQLNHLFEEDMLPSTLLERTLTRVPAAELHETAEVIYLKLELPGIDAKDVDLQVTDKAVYISGERKSETKTEDKGVFKSEFQYGKFQRVIPLPARIQNTNVTAEYKDGILNLTLPKAEVEKNKVVKINIESAAGLEHHHHHH” it is “soluble”.
Consider “MGHHHHHHSHMASLAVSNWPKPMPLIPCLSWSTASGVFTTGVLSKPINWRELEKQYYTQTVYEEEIIHMLEYCGTDSFKMGQEFVKHFTSSADKLTNLNLVSRTLNLDISNQVVSQKPADCHNSSKTSVSATSEGLLLQDTSKMKRFNQTLSTNKSGYTSRNPQSYHLLSKEQSRNSLRKESLIFMKGVMDECTHVANFSVPVDPSLIIVVQAKEDAYIPRTGVRSLQEIWPGCEIRYLEGGHISAYLFKQGLFR”, for which the “soluble on expression in E. coli” value is “soluble”.
As to “GEYKMMMARVAALPEDYQFVFKKIQNYMWNFSAGNGMDMLHIQYELIDLFEAGAAEGRQVLDITGEDVASFADELVANAKTYVSK”, the “soluble on expression in E. coli” value was “soluble”.
Regarding “MNCEKCNQNPATIQLYMNINGKRVEMPLCASCYAEVRNQANFGSNEFPGASGSPFDDIFRQLSGAANQANREQRSQANAQVQTQTAGGGNGILDEFGTNLTDMAKNEQLDPVIGRDKEIKRVIEILNRRNKNNPVLIGEPGVGKTAVVEGLANAIVAGDVPSKLMNKEVILLDVASLVSGTGIRGQFEERMKQLIKELQERKNTILFIDEVHTIVGAGSAEGSMDAGNILKPALARGDLQMIGATTLKEYRTIEKDAALERRFQPVTVSEPSTKETLTILNGLKPKYEDFHEVVYSPEALTAAVELSARYIQDRHLPDKAIDLMDEVGSKYNLSIEKLDENTVSERVARLEDEKNQALQMEDYEKAAKVRDEITRLEENKTSNSFSERPVIQASDIQAIIEEKTGIPVGRLQEDEQSKMKNLERNLTGKVIGQEDAVKKVAKAIRRSRVGLKSKNRPIGSFLFVGPTGVGKTELGRTLARELFGTSEAMIRLDMSEFMEKHSISKLIGSPPGYVGHEEAGQLTEKVRRNPYSIILLDEIEKAHPDVQHMFLQILEDGRLTDSQGRTVSFKDTVIIMTSNAGATDTEASVGFNTTTETKLEKGSDILAKLGAYFKPEFLNRLDSVIEFKSLEKDDLVQIIDLMLVDLNEMLAQEGVTIDVSKEVKEHLIDLGYDPKFGARPLRRTIQEHLEDTIADSLIDQPEAKNLVATLNDNKEITITEQVTA”, the “soluble on expression in E. coli” value was “not soluble”.
The entry for “MKLPLFPLPICLLPEGYTQLRIFEPRYKRLVAESLKSGDGFGLCMTSEEVNTLYPIGTLVHIIDFETLSDGMLGVSIEGKQRFILGDISVESDGLKRAQINLIDNWPAAPIHENEHYLSDMLQNILKEYPKHLQQYQAAQFDDIAWVCQRWLEILPIRSAEKYTCINALDHQLTLDLLRTVIKLEHHHHHH” is “soluble”; for “MIRVTIEREADGRIRAFTMEGHAHFAKRGQDIVCAGASAVSFGTINAIETLIGVSPHVSLGKDGGYLRCELPELEEAAAEKVQLLLEAMVVSLKTIERDYGTFIRVTSI” it is “not soluble”.
The entry for “GSLSRLSYKSNNNSFVLGIGISVPGEPISQQSLKDSISNDFSDKAETNEKVKRIFEQSQIKTRHLVRDYTKPENSIKFRHLETITDVNNQFKKVVPDLAQQACLRALKDWGGDKGDITHIVSVTSTGIIIPDVNFKLIDLLGLNKDVERVSLNLMGCLAGLSSLRTAASLAKASPRNRILVVCTEVCSLHFSNTDGGDQMVASSIFADGSAAYIIGCNPRIEETPLYEVMCSINRSFPNTENAMVWDLEKEGWNLGLDASIPIVIGSGIEAFVDTLLDKAKLQTSTAISAKDCEFLIHTGGKSILMNIENSLGIDPKQTKNTWDVYHAYGNMSSASVIFVMDHARKSKSLPTYSISLAFGPGLAFEGCFLKNVV” is “soluble”.
As for “MNTGPYYFVKNLPLHELITPEFISTFIKKGSCYALTYNTHIDEDNTVALLPNGKLILSLDKDTYEETGLQGHPSQFSGRKIMKFIVSIDLMELSLNLDSKKYERISWSFKEKKPLKFDFLLAWHKTGSEESTMMSYFSKYQIQEHQPKVALSTLRDLQCPVLQSSELEGTPEVSCRALELFDWLGAVFSNVDLNEPNNFISTYCCPEPSTVVAKAYLCTITGFILPEKICLLLEHLCHYFDEPKLAPWVTLSVQGFADSPVSWEKNEHGFRKGGEHLYNFVIFNNQDYWLQMAVGANDHCPPLEHHHHHH”, the “soluble on expression in E. coli” value was “not soluble”.
The entry for “MNSGNMQDTLDLEKKLRGYLFGTACADALGRPVEHLTLKQIKEKYGEKGILELPPNSSWTDDTQLMLVLARGLLHGAEFELPELMKHIAGELVLWLKEPDLGAGATTKGAALSLKDGIHWSESGLNSKTCGSLMRVGILGFIFSNDPDKLIEAASLSGRITHNHPTADAASVAGAYAVKLALDGIAPEDMFLPLLRVTEGISDEFTEALKHSYELAHSNLSDEEALQKLGQGWYADETFALAYFCILRYPDNYKKAVQTGVNITGDSDSVGSVAGGILGARLGIEAVPVSWVESLKEKEIIEEMVEPLIEKYLEVSENKHQVSEDGFGAMAGDPLEHHHHHH” is “soluble”; for “MTVLAQLYYKYGTMNSGKTIEILKVAHNYEEQGKPVVIMTSSLDTRDGFGVVASRIGMRREAVTITDDMDIFAYIENMFKKPYCILIDESQFLSQKNVYDLARIVDELDVPVMAFGLKNDFQNHLFEGSRELLLLADKIEEIKTICQFCSKKATMVLRTENGRPVYKGNQIQIGGNETYIPVCRRHYFHPPIKALEHHHHHH” it is “not soluble”.
Take “MGSDKIHHHHHHMLAIIKQFFAKSHGTTVSDSRFLALNHWLSNTFGEPLSPVLISGDASFRRYFRAVHQGRAMVIMDTPVALIPTEPFVAVRNAYAASGLPVPGIIAKDDEQGFMALEDFGDVQLLSLLNSQSVRHWYPRALALLPGIAAVTQTVLGPLPDYDDAFVRRELGIFTEWLLGTHLKLELTSDEEAIIADAFDMLTQNALEQPKVGMHRDFHSRNLMVVDGELKLLDFQDAVLGPVTYDAVSLLRDCYIRWSEDLVDDMLVEFFVLAHEHALVPPHTDMVQFRRWFELMGLQRHIKAAGIFARLNHRDGKAGYLKDIPLTMHYIRDVAVRYKELGDFAQFIMRRVMPALEAGA”: the “soluble on expression in E. coli” value is reported as “not soluble”.
The result for “MPSIRVVNLKKYFGKVKAVDGVSFEVKDGEFVALLGPSGCGKTTTLLMLAGIYKPTSGEIYFDDVLVNDIPPKYREVGMVFQNYALYPHMTVFENIAFPLRARRISKDEVEKRVVEIARKLLIDNLLDRKPTQLSGGQQQRVALARALVKQPKVLLFDEPLSNLDANLRMIMRAEIKHLQQELGITSVYVTHDQAEAMTMASRIAVFNQGKLVQYGTPDEVYDSPKNMFVASFIGNPPTNFLRDFSVSVENKQTILKRDDVIIKLPEPVDVKLKEVVVGIRPEHCRISRERVENSIPGVVYVVEPLGRDIIVNVKTEKGEIIKVFGDTGKAPQPGENVFLVPDLRKIHLFNPETEETIL” reads “soluble”.
In the case of “MSLKLYYMPAACSLSPHIVANELELDIEFVRVNFKDHKTEGGQDYYDINPNGYIPALDVGNGAMLFEGPAIVQYMADLKPQSGLAPANGTFERYKLQEMLSFLSTEIHKGFIPLLYAKQAGAYLETATPKLEKRYAWIDNLLASQRFLMGENFTVADAYLFALTSWGQASWLKSYYGADIHFDDLLNLRGWYERVKERDAVKQSILEEGLSLSEGHHHHHH”, the “soluble on expression in E. coli” value is “soluble”.
The result for “MAHHHHHHMVMSQRIAYVTGGMGGIGTSICQRLHKDGFRVVAGCGPNSPRRVKWLEDQKALGFDFYASEGNVGDWDSTKQAFDKVKAEVGEIDVLVNNAGITRDVVFRKMTREDWQAVIDTNLTSLFNVTKQVIDGMVERGWGRIINISSVNGQKGQFGQTNYSTAKAGIHGFTMSLAQEVATKGVTVNTVSPGYIGTDMVKAIRPDVLEKIVATIPVRRLGSPDEIGSIVAWLASEESGFSTGADFSLNGGLHMG” reads “soluble”; that for “MLREIPTHLIGGPLGAGKTSLIRSLLAQKPAGERWAVLVNEFGEIGLDAALLATDVDGVAIGEVAGGCLCCVNGVPFQVGLGRLLRRARPDRLFIEPSGLGHPQALWKQLQAPPWSGVLALQPLVVVLDAAALASGQPLPEAQEQALEAAGMLLLNKSETLDATQRCAVRARLPVLPLRWSVRGHLALRDLPTSVAGEGSATTWAALPEAPAQLGTVLLAERPLRAVREQDGQFAIGWRRRCVSIGPQWTPGLEHHHHHH”, “not soluble”; that for “MGSDKIHHHHHHMTALDFLPNPPIKQELITPLFHLPYPNPSPIDPKVYKEQSNQAKALAQVFKKEEAHDFDYSSGSFLELFLALALEKKKLAIASSLHYNALKAAREVQKLGIEIFWLHPDVKSGVIEPNSLQEARTRGFELFFLPWANEDLLTLNPLESYGFSLDERLFVEASYPLALGIALPLLEKAHWLINGEILGIPRGYGAILGGEIPLHRPLMRANLFGVLHAALKAREILIENDDQKTLFYEHLSALLGENLSLFAPLKSCLPNALPLRFKGIRARSLIQALLLEKITSLNGQECLFGFSKPSSVLQSMGYDEDEARELLSVSFLPFGSIEELERIAKILALRYKQIHLYS”, “not soluble”.
The entry for “MSLRKRPDSVTPDLLHVDRSAMGPLAERMRPRTLDDMVGQKRLLAPDSALRRAVESGRVHSMILWGPPGCGKTTLALLLAHYADAEFNAISAVLSGLPEVRQVLAEAAQRFAGGRRTVLFVDEVHRFNKAQQDAFLPHIERGTILFVGATTENPSFELNSALLSRCRVHVLEGVSPQDIVEALQRALHDAERGLGQQTIQVSEASLLEIASAADGDVRRALTLLEIAAELATGEGGEITPRTLLQVLADRTRRFDKNGEQFYDQISALHKSVRSSNPDAALYWLTRMLDGGCDPTYLARRLTRMAIEDIGLADPRAQGMALEAWDIYERLGSPEGELAFAQLVLYLASTAKSNAGYAAFNQARAEVRATGTQEVPLHLRNAPTKLMKTLGYGQDYQYDHDAEGGIALDQTGFPDAMGERVYYNPMPRGMEIKLKEKLDRLRETRGQAREGHHHHHH” is “soluble”.
The result for “MTNVLWLQGGACSGNTMSFLNGEEPTACDLIANFGIKVLWHPSLGVELGNNLQTLLWDCVLGKTPLDILVFEGSVVNAPNGTGEWNRFADRPMKDWLIDLSQAAKFIVAVGDCATWGGIPAMSPNPSDSKGLQFLKRKEGGFLGKDFVSKAGLPVINIPGCPTHPDWITQILVAIATGRTDDIVLDELHRPQTFFNTYTQTGCTRNIHFAYKATTAEFGQRKGCLFYDLGCRGPMTHSSCNRILWNRISSKTRAGMPCLGCTEPEFPFFDLKPGTVFKTQTVMGVPKEIPPGVNHRDYAVLTVVAKDAAPKWADEDFFTV” reads “not soluble”.

Source of the values: the DeepSol protein solubility set.
